# In patent publication US20240026017A1 (Kyowa Kirin, published 2024):
# T1: human CC chemokine receptor 1 (human CCR1) (human, UniProt P32246 1-355)
# T1 construct: endogenous on THP-1 cells in the migration assays; also called hCCR1; CHO-S-hCCR1 (expressing cells)
# T1 sequence: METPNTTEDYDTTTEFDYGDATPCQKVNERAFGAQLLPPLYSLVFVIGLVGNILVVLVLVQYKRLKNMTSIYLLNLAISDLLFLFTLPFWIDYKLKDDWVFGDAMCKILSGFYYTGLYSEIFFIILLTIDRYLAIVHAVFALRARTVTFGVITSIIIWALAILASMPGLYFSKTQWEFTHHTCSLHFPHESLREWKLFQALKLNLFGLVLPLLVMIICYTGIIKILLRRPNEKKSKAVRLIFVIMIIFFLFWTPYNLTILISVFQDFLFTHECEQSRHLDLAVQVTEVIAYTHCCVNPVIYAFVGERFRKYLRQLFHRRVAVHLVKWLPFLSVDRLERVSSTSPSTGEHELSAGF
# Biological target: T1, human CC chemokine receptor 1 (human …)
# Test: flow cytometry on CHO-S-hCCR1 cells; bound = fluorescence 10 times or more that of isotype control hzDNP1
# Method: The antigen affinity of the chKM5908′ antibody, which is a VL-substituted chimeric antibody, was measured by flow cytometry using the CHO-S-hCCR1 cells produced in Example 2. The cells were collected by centrifugation, the supernatant was removed, and the cells were suspended in PBS (Staining Medium, hereinafter, abbreviated as SM) containing 2% fetal bovine serum (FBS), 0.05% NaN₃, and 1 mM EDTA. Next, the cells were seeded in a 96-well plate so that the number of cells is 1×10⁵ per well, and the chKM5908′ antibody was added at each final concentration of 10,000, 2,000, 400, 80, 16, and 3.2 ng/mL, and the reaction was performed at 4° C. for 60 minutes. After washing the cells with SM, Goat F (ab′)₂ Anti-Human IgG PE (γ chain specific) (Southern Biotech) diluted 500-fold with SM was added and reacted at 4° C. for 60 minutes. After washing the cells with SM, the cells were resuspended in 50 μL of SM, and the fluorescence intensity was measured by the flow cytometry (FACS Canto II, BD Biosciences).
# Next, a modified antibody was obtained using the method described in Example 12-(3). […] Hereinafter referred to as hzDNP1)] were determined to bind to the human CCR1.
row,binding result,Binder
1,binds,"hzKM5907 LV2aHV7 antibody (antibody, V domains shown, humanized; also called hzmAb5907 LV2aHV7) VH: EVQVLESGGGLVQPGGSLRLSCAASGFTFSRYGMSWVRQAPGKRLEWVASISATFTYTYYTDNVKGRFTISRDNSKNTLYLQMNSLRAEDTGMYYCTRQDNYAWFDSWGQGTLVTVSS VL: DIVMTQTPLSLPVTSGEPASISCRSSQSIVHSNGNTFLEWYLKKPGQSPKLLIYKVSSRFSGVPDRFSGSGSGTDFTLKISRVEAEDVGVYYCFQGSHIPWTFGGGTKVEIK"
2,binds,"hzKM5907 LV2aHV0 antibody (antibody, V domains shown, humanized; also called hzmAb5907 LV2aHV0) VH: EVQLLESGGGLVQPGGSLRLSCAASGFTFSRYGMSWVRQAPGKGLEWVSSISATFTYTYYTDNVKGRFTISRDNSKNTLYLQMNSLRAEDTAVYYCAKQDNYAWFDSWGQGTLVTVSS VL: DIVMTQTPLSLPVTSGEPASISCRSSQSIVHSNGNTFLEWYLKKPGQSPKLLIYKVSSRFSGVPDRFSGSGSGTDFTLKISRVEAEDVGVYYCFQGSHIPWTFGGGTKVEIK"
3,binds,"hzKM5907 LV1cHV7 antibody (antibody, V domains shown, humanized; also called hzmAb5907 LV1cHV7) VH: EVQVLESGGGLVQPGGSLRLSCAASGFTFSRYGMSWVRQAPGKRLEWVASISATFTYTYYTDNVKGRFTISRDNSKNTLYLQMNSLRAEDTGMYYCTRQDNYAWFDSWGQGTLVTVSS VL: DIVMTQTPLSLPVTSGEPVSISCRSSQSIVHSNGNTFLEWYLQKPGQSPQLLIYKVSSRFSGVPDRFSGSGSGTDFTLKISRVEAEDVGVYYCFQGSHIPWTFGGGTKVEIK"
4,binds,"hzKM5907 LV1bHV7 antibody (antibody, V domains shown, humanized; also called hzmAb5907 LV1bHV7) VH: EVQVLESGGGLVQPGGSLRLSCAASGFTFSRYGMSWVRQAPGKRLEWVASISATFTYTYYTDNVKGRFTISRDNSKNTLYLQMNSLRAEDTGMYYCTRQDNYAWFDSWGQGTLVTVSS VL: DIVMTQTPLSLPVTSGEPASISCRSSQSIVHSNGNTFLEWYLQKPGQSPKLLIYKVSSRFSGVPDRFSGSGSGTDFTLKISRVEAEDVGVYYCFQGSHIPWTFGGGTKVEIK"
5,binds,"hzKM5907 LV0HV0 antibody (antibody, V domains shown, humanized; also called hzmAb5907 LV0HV0) VH: EVQLLESGGGLVQPGGSLRLSCAASGFTFSRYGMSWVRQAPGKGLEWVSSISATFTYTYYTDNVKGRFTISRDNSKNTLYLQMNSLRAEDTAVYYCAKQDNYAWFDSWGQGTLVTVSS VL: DIVMTQTPLSLPVTSGEPASISCRSSQSIVHSNGNTFLEWYLQKPGQSPQLLIYKVSSRFSGVPDRFSGSGSGTDFTLKISRVEAEDVGVYYCFQGSHIPWTFGGGTKVEIK"
6,binds,"hzKM5907 LV0HV7 antibody (antibody, V domains shown, humanized; also called hzmAb5907 LV0HV7) VH: EVQVLESGGGLVQPGGSLRLSCAASGFTFSRYGMSWVRQAPGKRLEWVASISATFTYTYYTDNVKGRFTISRDNSKNTLYLQMNSLRAEDTGMYYCTRQDNYAWFDSWGQGTLVTVSS VL: DIVMTQTPLSLPVTSGEPASISCRSSQSIVHSNGNTFLEWYLQKPGQSPQLLIYKVSSRFSGVPDRFSGSGSGTDFTLKISRVEAEDVGVYYCFQGSHIPWTFGGGTKVEIK"
7,binds,"hzKM5907 LV1cHV0 antibody (antibody, V domains shown, humanized; also called hzmAb5907 LV1cHV0) VH: EVQLLESGGGLVQPGGSLRLSCAASGFTFSRYGMSWVRQAPGKGLEWVSSISATFTYTYYTDNVKGRFTISRDNSKNTLYLQMNSLRAEDTAVYYCAKQDNYAWFDSWGQGTLVTVSS VL: DIVMTQTPLSLPVTSGEPVSISCRSSQSIVHSNGNTFLEWYLQKPGQSPQLLIYKVSSRFSGVPDRFSGSGSGTDFTLKISRVEAEDVGVYYCFQGSHIPWTFGGGTKVEIK"
8,binds,"hzKM5907 LV1aHV0 antibody (antibody, V domains shown, humanized; also called hzmAb5907 LV1aHV0) VH: EVQLLESGGGLVQPGGSLRLSCAASGFTFSRYGMSWVRQAPGKGLEWVSSISATFTYTYYTDNVKGRFTISRDNSKNTLYLQMNSLRAEDTAVYYCAKQDNYAWFDSWGQGTLVTVSS VL: DIVMTQTPLSLPVTSGEPASISCRSSQSIVHSNGNTFLEWYLKKPGQSPQLLIYKVSSRFSGVPDRFSGSGSGTDFTLKISRVEAEDVGVYYCFQGSHIPWTFGGGTKVEIK"
9,binds,"hzKM5907 LV1aHV7 antibody (antibody, V domains shown, humanized; also called hzmAb5907 LV1aHV7) VH: EVQVLESGGGLVQPGGSLRLSCAASGFTFSRYGMSWVRQAPGKRLEWVASISATFTYTYYTDNVKGRFTISRDNSKNTLYLQMNSLRAEDTGMYYCTRQDNYAWFDSWGQGTLVTVSS VL: DIVMTQTPLSLPVTSGEPASISCRSSQSIVHSNGNTFLEWYLKKPGQSPQLLIYKVSSRFSGVPDRFSGSGSGTDFTLKISRVEAEDVGVYYCFQGSHIPWTFGGGTKVEIK"
10,binds,"hzKM5907 LV1bHV0 antibody (antibody, V domains shown, humanized; also called hzmAb5907 LV1bHV0) VH: EVQLLESGGGLVQPGGSLRLSCAASGFTFSRYGMSWVRQAPGKGLEWVSSISATFTYTYYTDNVKGRFTISRDNSKNTLYLQMNSLRAEDTAVYYCAKQDNYAWFDSWGQGTLVTVSS VL: DIVMTQTPLSLPVTSGEPASISCRSSQSIVHSNGNTFLEWYLQKPGQSPKLLIYKVSSRFSGVPDRFSGSGSGTDFTLKISRVEAEDVGVYYCFQGSHIPWTFGGGTKVEIK"

# Continued, binder first:
row,Binder,binding result
1,"hzmAb5-06 LV2aHV17 antibody (antibody, V domains shown, humanized) VH: QVQLQQSGPGLVKPSQTLSITCTVSGFSLNNYGVHWVRQPPGKGLEWLGVIWSAGTTVYNAAAISRLTISKDDSKSQVSFKMSSLTAADTAIYYCAKDGSRYYTAMDYWGQGTLVTVSS VL: DIVMTQSPLSLPVTLGEPASISCRSSQSLVHRNGITFFHWYLQKPGQSPKLLIYKISNRFSGVPDRFSGSGSGTDFTLKISRVEAEDVGVYYCSQGTHVPPTFGQGTKVEIK",binds
2,"hzmAb5-06 LV4HV17 antibody (antibody, V domains shown, humanized) VH: QVQLQQSGPGLVKPSQTLSITCTVSGFSLNNYGVHWVRQPPGKGLEWLGVIWSAGTTVYNAAAISRLTISKDDSKSQVSFKMSSLTAADTAIYYCAKDGSRYYTAMDYWGQGTLVTVSS VL: DIVMTQSPLSLPVTLGEPASISCRSSQSLVHRNGITFFHWYLQKPGQSPKLLIYKISNRFSGVPDRFSGSGSGTDFTLKISRVEAEDVGVYFCSQGTHVPPTFGQGTKLEIK",binds
3,"hzmAb5-06 LV0HV17 antibody (antibody, V domains shown, humanized) VH: QVQLQQSGPGLVKPSQTLSITCTVSGFSLNNYGVHWVRQPPGKGLEWLGVIWSAGTTVYNAAAISRLTISKDDSKSQVSFKMSSLTAADTAIYYCAKDGSRYYTAMDYWGQGTLVTVSS VL: DIVMTQSPLSLPVTPGEPASISCRSSQSLVHRNGITFFHWYLQKPGQSPQLLIYKISNRFSGVPDRFSGSGSGTDFTLKISRVEAEDVGVYYCSQGTHVPPTFGQGTKVEIK",binds
4,"hzmAb5-06 LV5HV17 antibody (antibody, V domains shown, humanized) VH: QVQLQQSGPGLVKPSQTLSITCTVSGFSLNNYGVHWVRQPPGKGLEWLGVIWSAGTTVYNAAAISRLTISKDDSKSQVSFKMSSLTAADTAIYYCAKDGSRYYTAMDYWGQGTLVTVSS VL: DVVMTQSPLSLPVTLGEPASISCRSSQSLVHRNGITFFHWYLQKPGQSPKLLIYKISNRFSGVPDRFSGSGSGTDFTLKISRVEAEDVGVYFCSQGTHVPPTFGQGTKLEIK",binds
5,"hzmAb5-06 LV1aHV17 antibody (antibody, V domains shown, humanized) VH: QVQLQQSGPGLVKPSQTLSITCTVSGFSLNNYGVHWVRQPPGKGLEWLGVIWSAGTTVYNAAAISRLTISKDDSKSQVSFKMSSLTAADTAIYYCAKDGSRYYTAMDYWGQGTLVTVSS VL: DIVMTQSPLSLPVTPGEPASISCRSSQSLVHRNGITFFHWYLQKPGQSPKLLIYKISNRFSGVPDRFSGSGSGTDFTLKISRVEAEDVGVYYCSQGTHVPPTFGQGTKVEIK",binds
6,"hzmAb5-06 LV1bHV17 antibody (antibody, V domains shown, humanized) VH: QVQLQQSGPGLVKPSQTLSITCTVSGFSLNNYGVHWVRQPPGKGLEWLGVIWSAGTTVYNAAAISRLTISKDDSKSQVSFKMSSLTAADTAIYYCAKDGSRYYTAMDYWGQGTLVTVSS VL: DIVMTQSPLSLPVTLGEPASISCRSSQSLVHRNGITFFHWYLQKPGQSPQLLIYKISNRFSGVPDRFSGSGSGTDFTLKISRVEAEDVGVYYCSQGTHVPPTFGQGTKVEIK",binds
7,"hzmAb5-06 LV2bHV17 antibody (antibody, V domains shown, humanized) VH: QVQLQQSGPGLVKPSQTLSITCTVSGFSLNNYGVHWVRQPPGKGLEWLGVIWSAGTTVYNAAAISRLTISKDDSKSQVSFKMSSLTAADTAIYYCAKDGSRYYTAMDYWGQGTLVTVSS VL: DIVMTQSPLSLPVTPGEPASISCRSSQSLVHRNGITFFHWYLQKPGQSPKLLIYKISNRFSGVPDRFSGSGSGTDFTLKISRVEAEDVGVYFCSQGTHVPPTFGQGTKVEIK",binds
8,"hzKM5907 LV2bHV2a antibody (antibody, V domains shown, humanized; also called hzmAb5907 LV2bHV2a) VH: EVQLLESGGGLVQPGGSLRLSCAASGFTFSRYGMSWVRQAPGKRLEWVSSISATFTYTYYTDNVKGRFTISRDNSKNTLYLQMNSLRAEDTAVYYCARQDNYAWFDSWGQGTLVTVSS VL: DIVMTQTPLSLPVTSGEPVSISCRSSQSIVHSNGNTFLEWYLKKPGQSPQLLIYKVSSRFSGVPDRFSGSGSGTDFTLKISRVEAEDVGVYYCFQGSHIPWTFGGGTKVEIK",binds
